Assay results as given in paper PMC10532153 (2023).

T1: Sos-S1 peptide (Drosophila melanogaster, UniProt P26675)
T1 chain: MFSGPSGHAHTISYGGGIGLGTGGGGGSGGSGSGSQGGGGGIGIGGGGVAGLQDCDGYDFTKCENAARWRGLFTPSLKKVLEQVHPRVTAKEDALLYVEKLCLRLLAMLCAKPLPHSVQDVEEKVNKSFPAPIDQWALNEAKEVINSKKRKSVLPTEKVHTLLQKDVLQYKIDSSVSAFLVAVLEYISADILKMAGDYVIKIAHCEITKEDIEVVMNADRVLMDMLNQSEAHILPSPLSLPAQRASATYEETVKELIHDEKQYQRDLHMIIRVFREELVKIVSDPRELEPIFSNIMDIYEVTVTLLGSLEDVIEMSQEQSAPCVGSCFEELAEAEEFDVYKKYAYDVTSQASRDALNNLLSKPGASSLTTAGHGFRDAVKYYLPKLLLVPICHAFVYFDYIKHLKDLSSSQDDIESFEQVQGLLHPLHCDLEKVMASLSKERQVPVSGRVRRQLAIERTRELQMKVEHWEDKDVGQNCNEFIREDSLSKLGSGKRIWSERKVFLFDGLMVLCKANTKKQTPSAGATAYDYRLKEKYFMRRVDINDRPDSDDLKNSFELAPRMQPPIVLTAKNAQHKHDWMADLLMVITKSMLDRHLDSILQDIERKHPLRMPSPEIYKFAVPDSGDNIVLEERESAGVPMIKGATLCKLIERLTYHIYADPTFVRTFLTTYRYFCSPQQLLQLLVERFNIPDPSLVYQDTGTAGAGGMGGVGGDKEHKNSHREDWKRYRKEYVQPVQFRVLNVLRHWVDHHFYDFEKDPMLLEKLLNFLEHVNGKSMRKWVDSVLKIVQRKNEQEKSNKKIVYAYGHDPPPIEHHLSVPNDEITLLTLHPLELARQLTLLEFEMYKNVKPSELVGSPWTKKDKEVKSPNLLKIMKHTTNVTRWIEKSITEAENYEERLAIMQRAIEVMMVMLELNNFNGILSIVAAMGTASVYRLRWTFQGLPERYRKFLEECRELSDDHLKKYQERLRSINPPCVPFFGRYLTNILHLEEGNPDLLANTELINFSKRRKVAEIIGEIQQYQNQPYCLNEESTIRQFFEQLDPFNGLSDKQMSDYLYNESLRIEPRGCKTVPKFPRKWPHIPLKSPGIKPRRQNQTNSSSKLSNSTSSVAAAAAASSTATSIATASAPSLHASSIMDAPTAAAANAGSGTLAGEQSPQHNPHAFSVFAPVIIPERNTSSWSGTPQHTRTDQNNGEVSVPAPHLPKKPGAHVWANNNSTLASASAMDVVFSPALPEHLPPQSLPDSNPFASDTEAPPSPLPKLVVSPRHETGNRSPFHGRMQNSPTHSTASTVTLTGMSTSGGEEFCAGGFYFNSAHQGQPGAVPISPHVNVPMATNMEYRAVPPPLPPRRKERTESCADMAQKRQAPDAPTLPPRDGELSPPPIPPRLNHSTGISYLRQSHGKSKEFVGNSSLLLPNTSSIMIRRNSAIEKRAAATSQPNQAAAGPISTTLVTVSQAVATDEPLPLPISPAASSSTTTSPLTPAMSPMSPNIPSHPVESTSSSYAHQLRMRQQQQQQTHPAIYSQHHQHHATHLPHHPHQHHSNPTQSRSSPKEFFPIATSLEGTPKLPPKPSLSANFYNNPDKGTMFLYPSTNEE

T2: Sos-S2 peptide (Drosophila melanogaster, UniProt P26675)
T2 chain: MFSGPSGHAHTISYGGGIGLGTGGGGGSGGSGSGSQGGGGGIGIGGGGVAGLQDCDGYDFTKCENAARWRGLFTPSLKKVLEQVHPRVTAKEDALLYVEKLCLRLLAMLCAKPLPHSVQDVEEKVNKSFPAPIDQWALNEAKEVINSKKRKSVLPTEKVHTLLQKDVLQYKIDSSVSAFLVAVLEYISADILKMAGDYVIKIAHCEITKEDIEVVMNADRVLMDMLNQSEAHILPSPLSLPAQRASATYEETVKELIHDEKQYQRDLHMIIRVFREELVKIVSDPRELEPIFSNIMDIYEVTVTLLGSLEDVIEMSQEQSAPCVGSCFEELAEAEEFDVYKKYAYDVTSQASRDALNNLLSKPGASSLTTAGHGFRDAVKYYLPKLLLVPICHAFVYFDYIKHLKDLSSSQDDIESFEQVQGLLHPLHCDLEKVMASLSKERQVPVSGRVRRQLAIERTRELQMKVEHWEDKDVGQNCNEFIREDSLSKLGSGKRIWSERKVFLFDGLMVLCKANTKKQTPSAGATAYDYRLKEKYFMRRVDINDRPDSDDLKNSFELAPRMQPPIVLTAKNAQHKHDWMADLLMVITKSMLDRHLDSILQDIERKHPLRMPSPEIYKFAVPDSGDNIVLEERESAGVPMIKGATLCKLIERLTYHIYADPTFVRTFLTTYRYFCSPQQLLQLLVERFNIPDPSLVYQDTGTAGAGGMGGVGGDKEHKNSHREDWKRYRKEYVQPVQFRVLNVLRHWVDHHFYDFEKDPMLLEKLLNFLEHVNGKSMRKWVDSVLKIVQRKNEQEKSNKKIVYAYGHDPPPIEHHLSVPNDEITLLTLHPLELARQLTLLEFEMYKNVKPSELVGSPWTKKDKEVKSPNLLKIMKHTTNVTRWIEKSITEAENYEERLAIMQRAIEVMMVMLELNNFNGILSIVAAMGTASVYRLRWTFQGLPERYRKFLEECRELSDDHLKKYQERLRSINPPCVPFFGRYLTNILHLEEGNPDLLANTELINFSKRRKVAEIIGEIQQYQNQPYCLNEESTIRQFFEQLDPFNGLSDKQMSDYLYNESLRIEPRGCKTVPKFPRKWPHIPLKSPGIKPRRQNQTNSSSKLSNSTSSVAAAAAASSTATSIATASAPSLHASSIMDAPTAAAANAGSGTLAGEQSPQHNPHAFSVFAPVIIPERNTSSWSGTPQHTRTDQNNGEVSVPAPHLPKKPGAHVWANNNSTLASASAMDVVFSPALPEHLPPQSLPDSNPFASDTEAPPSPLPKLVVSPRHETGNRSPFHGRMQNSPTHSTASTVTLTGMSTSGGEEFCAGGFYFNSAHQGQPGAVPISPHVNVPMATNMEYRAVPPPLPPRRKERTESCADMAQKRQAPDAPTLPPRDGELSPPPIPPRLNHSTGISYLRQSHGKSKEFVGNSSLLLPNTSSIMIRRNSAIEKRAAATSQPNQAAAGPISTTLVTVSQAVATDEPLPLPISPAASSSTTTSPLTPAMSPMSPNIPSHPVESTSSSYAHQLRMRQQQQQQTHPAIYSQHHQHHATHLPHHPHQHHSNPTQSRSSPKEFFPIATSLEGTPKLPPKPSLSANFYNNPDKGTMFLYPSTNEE


Columns and labels:
[1] = target: T1, Sos-S1 peptide; assay: NMR titration
[2] = target: T2, Sos-S2 peptide; assay: NMR titration

Row | Kd [1] [µM] | Kd [2] [µM] | Binder
1 | ~160 | – | Drk CSH3 (protein) PEEMLVQALYDFVPQESGELDFRRGDVITVTDRSDENWWNGEIGNRKGIFPATYVTPYHS
2 | ~13 | ~41 | Drk NSH3 (protein) MEAIAKHDFSATADDELSFRKTQILKILNMEDDSNWYRAELDGKEGLIPSNYIEMKNH
